Source: doi:10.1101/537159 (bioRxiv, 2019)

What was measured:
[1] = molecular target: R719W human β-cardiac myosin 2-hep HMM (human, UniProt P12883 1-855; P08590 1-195; P10916 1-166, R719W); assay: MST
[2] = molecular target: D382Y human β-cardiac myosin 2-hep HMM (human, UniProt P12883 1-855; P08590 1-195; P10916 1-166, D382Y); assay: MST
Chain of D382Y human β-cardiac myosin 2-hep HMM (P12883 1-855 D382Y, chain 1 of 3): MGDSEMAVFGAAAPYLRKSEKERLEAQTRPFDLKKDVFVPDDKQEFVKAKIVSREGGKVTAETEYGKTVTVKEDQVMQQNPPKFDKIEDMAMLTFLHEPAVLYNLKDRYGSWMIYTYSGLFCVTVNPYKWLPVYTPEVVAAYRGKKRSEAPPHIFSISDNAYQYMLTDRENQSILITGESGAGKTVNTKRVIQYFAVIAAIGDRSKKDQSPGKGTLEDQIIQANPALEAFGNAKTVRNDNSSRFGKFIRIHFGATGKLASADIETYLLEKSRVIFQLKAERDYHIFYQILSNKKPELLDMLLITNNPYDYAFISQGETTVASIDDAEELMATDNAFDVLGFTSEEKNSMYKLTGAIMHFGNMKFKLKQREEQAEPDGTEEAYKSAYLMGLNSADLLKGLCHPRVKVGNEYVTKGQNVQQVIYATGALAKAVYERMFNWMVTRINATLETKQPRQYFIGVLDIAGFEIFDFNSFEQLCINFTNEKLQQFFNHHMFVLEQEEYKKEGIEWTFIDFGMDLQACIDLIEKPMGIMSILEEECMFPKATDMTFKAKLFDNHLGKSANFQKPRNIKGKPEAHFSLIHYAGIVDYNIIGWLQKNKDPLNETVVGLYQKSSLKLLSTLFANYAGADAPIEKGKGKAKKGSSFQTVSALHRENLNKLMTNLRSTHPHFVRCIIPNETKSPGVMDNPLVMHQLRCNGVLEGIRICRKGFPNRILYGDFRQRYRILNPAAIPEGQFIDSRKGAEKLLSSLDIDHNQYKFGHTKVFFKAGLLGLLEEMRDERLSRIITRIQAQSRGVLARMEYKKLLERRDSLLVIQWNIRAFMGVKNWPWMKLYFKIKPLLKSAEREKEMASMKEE
Chain of D382Y human β-cardiac myosin 2-hep HMM (P08590 whole entry, chain 2 of 3): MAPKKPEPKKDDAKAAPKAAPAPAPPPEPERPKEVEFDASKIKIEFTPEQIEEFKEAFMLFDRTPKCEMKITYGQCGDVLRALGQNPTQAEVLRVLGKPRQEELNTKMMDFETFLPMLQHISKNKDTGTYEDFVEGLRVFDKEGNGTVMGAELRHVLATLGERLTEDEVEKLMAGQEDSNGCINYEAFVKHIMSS
Chain of D382Y human β-cardiac myosin 2-hep HMM (P10916 whole entry, chain 3 of 3): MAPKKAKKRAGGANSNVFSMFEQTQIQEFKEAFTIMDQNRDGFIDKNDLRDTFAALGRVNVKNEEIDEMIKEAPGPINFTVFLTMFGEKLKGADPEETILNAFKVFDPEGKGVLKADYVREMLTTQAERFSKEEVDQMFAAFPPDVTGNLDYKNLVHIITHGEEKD

Chain of R719W human β-cardiac myosin 2-hep HMM (P12883 1-855 R719W, chain 1 of 3): as the sequence (P12883 1-855 D382Y, chain 1 of 3) above, with Y382D, R719W counted along it
Chain of R719W human β-cardiac myosin 2-hep HMM (P08590 whole entry, chain 2 of 3): as the sequence (P08590 whole entry, chain 2 of 3) above
Chain of R719W human β-cardiac myosin 2-hep HMM (P10916 whole entry, chain 3 of 3): as the sequence (P10916 whole entry, chain 3 of 3) above

B1: proximal S2 (amino acids 839-968) (domain or fragment, human, UniProt P12883 839-968, looked up)
chain: LLKSAEREKEMASMKEEFTRLKEALEKSEARRKELEEKMVSLLQEKNDLQLQVQAEQDNLADAEERCDQLIKNKIQLEAKVKEMNERLEDEEEMNAELTAKKRKLEDECSELKRDIDDLELTLAKVEKEK
fold change of affinity against WT 2-hep HMM [1]: < 2 fold
fold change of affinity against WT 2-hep HMM [2]: < 2 fold
